Results published in patent US20160243230A1.

Biological target: Vκ4Len(1-22) peptide, P06312
Test: EuLISA, peptide dried on the plate, 11-1F4 titrated from 100 nM

EC50: 0.5 nM
B1: murine 11-1F4 monoclonal antibody (antibody)
chain 1: QVQLKESGPGLVAPSQSLSITCTVSGFSLSSYGVSWVRQPPGKGLEWLGVIWGDGSTNYHPNLMSRLSISKDISKSQVLFKLNSLQTDDTATYYCVTLDYWGQGTSVTVSS
chain 2: DVVMTQTPLSLPVSLGDQASISCRSSQSLVHRNGNTYLHWYLQKPGQSPKLLIYKVSNRFSGVPDRFSGSGSGTDFTLKISRVEAEDLGLYFCFQTTYVPNTFGGGTKLEIK
